Assays:
[1] = biological target: T1, S207D LysRS(ΔN65) (human, UniProt Q15046 66-597, S207D); experiment: fluorescence anisotropy; 1 mM Mg2+; FA: 20 mM Tris-HCl pH 8, 15 mM NaCl, 35 mM KCl, 1 mM MgCl2, 20 nM RNA (30 nM per supplement), temperature not stated; XL-SHAPE: 20 mM HEPES pH 7.5, 60 mM NaCl; settings: protein: recombinant; tags: His; chain copies: 2; label: 3' fluorescein (FTSC); tRNA fold
[2] = biological target: T2, WT LysRS(ΔN65) (human, UniProt Q15046 66-597); experiment: as above; settings: protein: recombinant; tags: His; chain copies: 2; label: 3' fluorescein (FTSC); tRNA fold
T2 sequence (Q15046 66-597, stated change not applied): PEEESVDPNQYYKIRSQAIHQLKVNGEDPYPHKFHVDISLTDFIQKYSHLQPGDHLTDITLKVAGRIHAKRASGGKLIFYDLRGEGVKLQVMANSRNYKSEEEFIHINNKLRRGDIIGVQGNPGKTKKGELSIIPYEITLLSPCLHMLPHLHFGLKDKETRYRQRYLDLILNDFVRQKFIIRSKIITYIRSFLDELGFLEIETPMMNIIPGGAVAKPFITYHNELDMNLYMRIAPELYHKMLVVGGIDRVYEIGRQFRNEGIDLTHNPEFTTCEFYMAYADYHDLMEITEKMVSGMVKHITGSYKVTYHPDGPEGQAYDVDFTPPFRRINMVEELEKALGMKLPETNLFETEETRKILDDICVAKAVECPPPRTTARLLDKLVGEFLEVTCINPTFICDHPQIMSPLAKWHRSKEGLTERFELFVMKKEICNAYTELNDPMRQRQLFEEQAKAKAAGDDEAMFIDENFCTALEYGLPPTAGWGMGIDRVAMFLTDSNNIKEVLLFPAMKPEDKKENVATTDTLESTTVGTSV

[3] = biological target: T1, S207D LysRS(ΔN65); experiment: fluorescence anisotropy; 1 mM Mg2+; settings: protein: recombinant, tags: His, chain copies: 2
[4] = biological target: T2, WT LysRS(ΔN65); experiment: fluorescence anisotropy; 1 mM Mg2+; settings: protein: recombinant, tags: His, chain copies: 2
[5] = label: 3' fluorescein (FTSC) on RNA, 21-nt DNA annealed to folded RNA, 1.5x DNA
[6] = label: 3' fluorescein (FTSC) on RNA, 18-nt DNA annealed to PBS of folded RNA, 1.5x DNA
[7] = label: 3' fluorescein (FTSC) on RNA, 29-nt DNA annealed, extends into TLE stem, 1.5x DNA
[8] = label: 3' fluorescein (FTSC) in FA, folded domain with TLE hairpin
[9] = label: 3' fluorescein (FTSC) on RNA, 24-nt DNA annealed, extends into TLE stem, 1.5x DNA

T1 sequence (Q15046 66-597 S207D): as the sequence (Q15046 66-597, stated change not applied) above, with S142D counted along it

B1: tRNALys3 (structured_RNA)
RNA: GCCCGGAUAGCUCAGUCGGUAGAGCAUCAGACUUUUAAUCUGAGGGUCCAGGGUUCAAGUCCCUGUUCGGGCGCCA
modifications: unmodified transcript
Kd [1]: 470 ± 190 nM | Kd [2]: 407 ± 33 nM

B2: PBS/TLE105:antiPBS18+3 (mixed)
RNA: GGGCUCUGGUAACUAGAGAUCCCUCAGACCCUUUUAGUCAGUGUGGAAAAUCUCUAGCAGUGGCGCCCGAACAGGGACUUGAAAGCGAAAGUAAAGCCAGAGCCC
DNA: GTCCCTGTTCGGGCGCCACTG
Kd [3, 5]: 305 ± 75 nM | Kd [4, 5]: 488 ± 171 nM

B3: PBS/TLE105:antiPBS18 (mixed)
RNA: GGGCUCUGGUAACUAGAGAUCCCUCAGACCCUUUUAGUCAGUGUGGAAAAUCUCUAGCAGUGGCGCCCGAACAGGGACUUGAAAGCGAAAGUAAAGCCAGAGCCC
DNA: GTCCCTGTTCGGGCGCCA
Kd [3, 6]: 417 ± 90 nM | Kd [4, 6]: 240 ± 95 nM

B4: PBS/TLE105:antiPBS18+11 (mixed)
RNA: GGGCUCUGGUAACUAGAGAUCCCUCAGACCCUUUUAGUCAGUGUGGAAAAUCUCUAGCAGUGGCGCCCGAACAGGGACUUGAAAGCGAAAGUAAAGCCAGAGCCC
DNA: GTCCCTGTTCGGGCGCCACTGCTAGAGAT
Kd [3, 7]: 949 ± 148 nM | Kd [4, 7]: 1010 ± 639 nM

B5: PBS/TLE105 (structured_RNA)
RNA: GGGCUCUGGUAACUAGAGAUCCCUCAGACCCUUUUAGUCAGUGUGGAAAAUCUCUAGCAGUGGCGCCCGAACAGGGACUUGAAAGCGAAAGUAAAGCCAGAGCCC
Kd [3, 8]: 315 ± 130 nM | Kd [4, 8]: 330 ± 115 nM

B6: PBS/TLE105:antiPBS18+6 (mixed)
RNA: GGGCUCUGGUAACUAGAGAUCCCUCAGACCCUUUUAGUCAGUGUGGAAAAUCUCUAGCAGUGGCGCCCGAACAGGGACUUGAAAGCGAAAGUAAAGCCAGAGCCC
DNA: GTCCCTGTTCGGGCGCCACTGCTA
Kd [3, 9]: 590 ± 182 nM | Kd [4, 9]: 865 ± 379 nM

Reference: paper PMC9315659
